How the values were obtained:
[1] = target: Mouse Cdh23 EC1-2 wild-type (mouse) (UniProt Q99PF4); assay: single-molecule force spectroscopy
[2] = target: Mouse Cdh23 EC1-2(D101G) (mouse); assay: single-molecule force spectroscopy

Chain of Mouse Cdh23 EC1-2 wild-type (mouse) (Q99PF4 24-228): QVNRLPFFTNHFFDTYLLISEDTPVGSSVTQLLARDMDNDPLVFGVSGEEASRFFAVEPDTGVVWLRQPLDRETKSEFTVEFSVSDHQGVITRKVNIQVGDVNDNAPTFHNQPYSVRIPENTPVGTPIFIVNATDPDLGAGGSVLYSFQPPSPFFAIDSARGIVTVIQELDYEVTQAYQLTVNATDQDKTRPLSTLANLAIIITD

| koff [1] | koff [2] | Substance |
| --- | --- | --- |
| 0.044 s⁻¹ |  | Mouse Pcdh15 EC1-2(D157G) (domain or fragment) |
|  | 0.0097 s⁻¹ | Mouse Pcdh15 EC1-2 wild-type (from UniProt Q99PJ1-18 27-259) (domain or fragment) |
